Target: LSm7 (UniProt Q9UK45)
Experiment: two-hybrid

UniProt Q9UK45, sequence (Q9UK45 whole entry): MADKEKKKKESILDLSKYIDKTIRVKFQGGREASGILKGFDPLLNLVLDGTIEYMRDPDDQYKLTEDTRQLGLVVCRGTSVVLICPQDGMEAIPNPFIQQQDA

fold reduction of the two-hybrid interaction against full-length SART3/p110: 2 fold
Substance: SART3/p110 with the CT10 domain deleted (from UniProt Q15020 1-950) (domain or fragment)

Source: paper PMC2173746
